According to patent publication US20050064507A1, “Determining kinase specificity” (priority 2003, published 2005):

Key:
Format in all cases: biochemical
PKA = target: T1, PKA (Homo sapiens, UniProt P17612); test: In vitro kinase assay: peptide phosphorylation by PKA; conditions: normalized to best substrate
T1 construct: purchased Calbiochem
Experimental: (§1) Catalytically active preparations of the kinases of interest were either purchased or prepared. Purchased and tested active kinase preparations including the following: PKC-alpha, PKC-delta, PKC-epsilon, PKC-zeta, PKC-mu, PKA, PKG from Calbiochem, ROK alpha/ROCK-II, active from Upstate Biotechnology, and AKT1 from Panvera.
(§2) The conditions of the kinase assay and the amount of active kinase used varied with the kinase and with the accuracy needed. For a typical experiment, 5-20 ng of kinase was used per well and each peptide pool was assayed in duplicate wells. Note that the absolute amount of kinase used was not usually a critical parameter, because the desired information related to specificity of the kinase not its absolute activity, and robustness of the assay depends on comparisons of the same amount of kinase on different peptides. The combination of kinase concentration and assay duration was modified to assure that the stoichiometry of peptide phosphorylation never exceeded 5%. The choice of kinase buffer depended on the kinase being analyzed. For studies of PKC, 100 mM HEPES, 0.05% Triton-X100, 1 mM CaCl2, 20 mM MgCl2, 0.2 mg/ml phosphatidyl serine (Avanti Polar Lipids), PMA 100 ng/ml was typically used. The lipid stock was prepared by transferring 3 mg phosphatidyl serine into iced mixture of 450 μl water plus 50 μl of 10% Triton-X100, sonicating 10 times on ice for 1 sec each.
(§3) The kinase reaction mixture was assembled by sequential addition to a tube held on ice of: 5 μl peptide (100 μM for final concentration of 10 μM), 15 μl of kinase (typically 5 ng/well, in appropriate kinase buffer), 30 μl of ATP (1 uCi/well of ^32P-gamma ATP in a stock of 167 μM cold ATP in the kinase buffer; for final concentration for 100 μM ATP). The mixture was rapidly warmed to desired reaction temperature (30° C. for PKC) and incubated for the desired duration (usually 10 minutes). The kinase assay was terminated by transfer to 4° C. water batch, and rapid addition of an equal volume (50 μl) of stop solution [0.1M ATP+0.1M EDTA in water, pH 8].
(§4) The peptides were then captured from the reaction mixture by transfer to a Reacti-Bind Streptavidin High Binding Capacity Coated Plates (HBC) (Pierce Biotechnology) as follows. The HBC plates were pre-rinsed three times with PBS/Tween PBS/Tween20 0.05% (PBS/Tween). Part of all of the reaction mixture was then transferred wells of a HBC plate pre-filled with 90 μl of phosphate-buffered saline (PBS); typically each aliquots of each phosphorylation reaction were transferred to duplicate HBC plates to assure accuracy by additional replication
(§5) For kinase assays done at the standard peptide concentration of 10 μM, the peptide concentration in the reaction mixture becomes 5 μM after addition of the stop solution; consequently 10 μl of the reaction (50 pMoles of peptide) was transferred to the HBC plate. More generally, the amount of reaction mixture transferred was estimated to be about 50 pMoles of peptide. […] The HBC plates were incubated for 0.5 to 1.5 hr at room temperature for complete binding of biotinylated peptides to plate-bound streptavidin. The HBC plates were then washed extensively with PBS/Tween. Five washes were done routinely and additional wash steps were added if the wash solution removed from the plate had measurable radioactivity as detected using a Geiger counter. This step is essential to obtaining a good the signal to noise ratio because the fraction of radioactivity incorporated in the peptides was a tiny fraction of the total in the reaction mixture. The wells were air-dried. A volume of 40-50 μl of microScint-20 (Packard Instruments) was added to each well. The plates were covered with stick-on film sheet. Radioactive emissions were measured in a TopCount NXT Microplate Scintillation and Luminescence Counter (Packard Instruments). Typically samples were counted for 5 minutes (or more) to improve the signal to noise ratio when counts were low. […]

PKC-zeta = target: T2, PKC-zeta (Homo sapiens, UniProt Q05513); test: In vitro kinase assay: peptide phosphorylation by PKC-zeta; conditions: for PKC-zeta phosphorylation: normalized to best substrate
T2 construct: purchased Calbiochem
T2 sequence (Q05513 1-592): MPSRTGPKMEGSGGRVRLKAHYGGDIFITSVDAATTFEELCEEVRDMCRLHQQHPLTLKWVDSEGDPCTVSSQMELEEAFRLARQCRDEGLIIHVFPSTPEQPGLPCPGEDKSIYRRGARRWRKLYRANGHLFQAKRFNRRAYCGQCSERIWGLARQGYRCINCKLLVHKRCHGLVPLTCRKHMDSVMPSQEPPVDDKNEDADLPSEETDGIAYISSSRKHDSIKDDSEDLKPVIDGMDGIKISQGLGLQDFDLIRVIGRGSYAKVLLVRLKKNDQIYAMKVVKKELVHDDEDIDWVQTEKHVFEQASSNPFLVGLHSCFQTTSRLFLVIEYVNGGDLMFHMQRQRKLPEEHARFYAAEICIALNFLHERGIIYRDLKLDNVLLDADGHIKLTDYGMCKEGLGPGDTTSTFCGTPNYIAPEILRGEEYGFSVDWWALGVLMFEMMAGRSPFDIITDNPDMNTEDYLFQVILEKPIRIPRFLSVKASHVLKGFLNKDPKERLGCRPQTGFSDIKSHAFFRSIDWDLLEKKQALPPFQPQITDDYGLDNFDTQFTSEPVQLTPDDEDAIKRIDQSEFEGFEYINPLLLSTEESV

AKT1 = target: T3, AKT1 (Homo sapiens, UniProt P31749); test: In vitro kinase assay: peptide phosphorylation by AKT1; conditions: normalized to best substrate
T3 construct: purchased Panvera
Experimental: as §1, §2, §3, §4, §5

PKC-delta = target: T4, PKC-delta (Homo sapiens, UniProt Q05655); test: In vitro kinase assay: peptide phosphorylation by PKC-delta
T4 construct: purchased Calbiochem
In short: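 Biotin-Lys-dansyl-Lys-Pro-Pro-Gly-linked proteomic peptides (12–21-residue core) phosphorylated by PKC-delta in HEPES/Triton/CaCl2/MgCl2 buffer with phosphatidyl serine and PMA, 100 μM [γ-32P]ATP, 30° C., ~10 min, stoichiometry ≤5%; streptavidin-plate capture. Signal normalized as % of best peptide substrate.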

T3 sequence (P31749 whole entry, species assumed): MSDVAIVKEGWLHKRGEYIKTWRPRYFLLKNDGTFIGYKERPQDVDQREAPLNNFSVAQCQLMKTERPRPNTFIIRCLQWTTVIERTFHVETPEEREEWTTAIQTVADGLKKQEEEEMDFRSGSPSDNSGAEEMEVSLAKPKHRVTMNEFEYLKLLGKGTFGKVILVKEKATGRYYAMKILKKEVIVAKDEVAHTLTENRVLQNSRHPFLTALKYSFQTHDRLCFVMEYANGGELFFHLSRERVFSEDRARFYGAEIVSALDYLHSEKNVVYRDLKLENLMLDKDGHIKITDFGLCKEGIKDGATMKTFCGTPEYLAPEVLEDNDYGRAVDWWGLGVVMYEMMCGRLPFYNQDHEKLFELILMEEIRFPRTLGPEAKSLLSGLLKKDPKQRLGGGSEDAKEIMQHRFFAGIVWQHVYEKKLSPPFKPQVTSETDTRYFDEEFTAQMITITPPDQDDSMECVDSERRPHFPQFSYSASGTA
T4 sequence (Q05655 whole entry): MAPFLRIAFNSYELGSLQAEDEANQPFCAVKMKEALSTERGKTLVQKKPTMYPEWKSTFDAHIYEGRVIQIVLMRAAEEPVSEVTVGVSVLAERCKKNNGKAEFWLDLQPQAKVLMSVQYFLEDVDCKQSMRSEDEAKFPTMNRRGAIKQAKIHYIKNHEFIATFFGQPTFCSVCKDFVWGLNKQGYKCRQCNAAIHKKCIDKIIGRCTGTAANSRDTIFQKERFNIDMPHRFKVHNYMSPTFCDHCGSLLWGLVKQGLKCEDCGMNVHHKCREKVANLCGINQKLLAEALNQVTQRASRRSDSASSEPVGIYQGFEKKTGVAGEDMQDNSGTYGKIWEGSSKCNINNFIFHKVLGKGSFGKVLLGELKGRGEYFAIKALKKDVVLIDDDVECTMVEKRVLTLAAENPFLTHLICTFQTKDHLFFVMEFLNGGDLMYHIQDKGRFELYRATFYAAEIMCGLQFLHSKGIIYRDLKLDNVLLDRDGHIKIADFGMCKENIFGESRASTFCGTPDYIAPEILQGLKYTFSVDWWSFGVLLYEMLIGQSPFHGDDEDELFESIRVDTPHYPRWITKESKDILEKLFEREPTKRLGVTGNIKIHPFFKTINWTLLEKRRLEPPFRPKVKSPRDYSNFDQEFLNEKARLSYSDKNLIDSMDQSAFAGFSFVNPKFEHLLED

Row | Substance | PKA phosphorylation (PKA) | PKC-zeta phosphorylation (PKC-zeta) | AKT1 phosphorylation (AKT1) | phosphorylation by PKC-delta (PKC-delta; peptide concentration 1 uM) | phosphorylation by PKC-delta (PKC-delta; peptide concentration 10 uM) | phosphorylation by PKC zeta (PKC-zeta; peptide concentration 1 uM) | phosphorylation by PKC zeta (PKC-zeta; peptide concentration 10 uM)
1 | 81 (KRERKTSSKSSVRKRR) [compound 81] | 2% | 10% | 9% |  |  |  | 
2 | 87 (RQGKRKTSIKRDTVNPL) [compound 87] | 64% | 3% | 7% |  |  |  | 
3 | 88 (KKPFKLSGLSFKRNRKE) [compound 88] | 3% | 4% | 10% |  |  |  | 
4 | 91 (VHYTSKDTLRKRHYWR) [compound 91] | 3% | 12% | 5% |  |  |  | 
5 | 97 (KKRSSKKEASMKKVVRP) [compound 97] | 1% | 1% | 10% |  |  |  | 
6 | 98 (AGPLRKSSLKKGGRL) [compound 98] | 21% | 4% | 7% |  |  |  | 
7 | 148 (RELEQLKAEYLERRASRRRA) [compound 148] |  |  |  | 27 | 14 | 20 | 20
8 | 149 (RVVQSVKHTKRKSSTVMK) [compound 149] |  |  |  | 20 | 17 | 3 | 5
9 | 150 (VDPFYEMLAARKKRISVKKK) [compound 150] |  |  |  | 34 | 20 | 3 | 6
10 | 151 (PQNSLKASNRKKKRTSFKRK) [compound 151] |  |  |  | 27 | 37 | 15 | 28
11 | 152 (DLIEGRKGAQIVKRASLKRG) [compound 152] |  |  |  | 35 | 18 | 4 | 9
12 | 153 (TYLLPDKSRQGKRKTSIKRD) [compound 153] |  |  |  | 32 | 26 | 6 | 13
